# Data reported in patent publication US9035028B2, “Temperature sensitive conjugate compositions” (Emory University, priority 2010, dated 2015).
# Where a SMILES comes first, the peptide text is derived from it. Bridges are numbered along the chain shown (N, C = ends). [ ]: non-standard residue; d: D form. hArg = N=C(N)NCCCC[C@H](N)C(=O)O; Mpa = O=C(O)CCS
# B1: scFv: activation-specific GPIIb/IIIa-blocking single-chain antibody, SEQ ID NO: 13 (protein)
# scFv: MAEVQLVESGGGLVQPGGSLRLSCAASGFMFSRYAMSWVRQAPGKGPEWVSGISGSGGSTYYADSVKGRFTVSRDNSKNTLYLQMNSLRAEDTAVYYCARIFTHRSRGDVPDQTSFDYWGQGTLVTVSSGSASAPKLEEGEFSEARVSSELTQDPAVSVALGQTVRITCQGDSLRNFYASWYQQKPGQAPTLVIYGLSKRPSGIPDRFSASSSGNTASLTITGAQAEDEADYYCLLYYGGGQQGVFGGGTKLTVLRQPKAAPSVTLFPPSSAAAGSEQKLISEEDLNS
# B2: EMP alone (elastin-mimetic polypeptide without scFv) (other)
# chain: MAVPAVGIPAVGIPAVGIPAVGIPAVGIPAVGIPAVGIPAVGIPAVGIPAVGIPAVGIPAVGIPAVGIPAVGIPAVGIPAVGIPAVGIPAVGIPAVGIPAVGIPAVGIPAVGIPAVGIPAVGIPAVGIPAVGIPAVGIPAVGIPAVGIPAVGIPAVGIPAVGIPAVGIPAVGIPAVGIPAVGIPAVGIPAVGIPAVGIPAVGIPAVGIPAVGIPAVGIPAVGIPAVGIPAVGIPAVGIPAVGIPAVGIPAVGIPAVGIPAVGIPAVGIPAVGIPAVGIPAVGIPAVGIPAVGIPAVGIPAVGIPAVGIPAVGIPAVGIPAVGIPAVGIPAVGIPAVGIPAVGIPAVGIPAVGIPAVGIPAVGIPAVGIPAVGIPAVGIPAVGIPAVGIPAVGIPAVGIPAVGIP
# B3: EMP: elastin mimetic polypeptide, sixteen repeats of monomer (IPAVG)5, SEQ ID NO: 11, approximately 35 kDa (protein)
# chain: B2 chain
# Key:
# [1] = target: T1, αv/β3 integrins on vascular cells (Homo sapiens, UniProt P05106+P06756); settings: cited from earlier work
# T1 construct: host or cells: vascular cells (not specified)
# T1 sequence (P06756 31-889 limits assumed): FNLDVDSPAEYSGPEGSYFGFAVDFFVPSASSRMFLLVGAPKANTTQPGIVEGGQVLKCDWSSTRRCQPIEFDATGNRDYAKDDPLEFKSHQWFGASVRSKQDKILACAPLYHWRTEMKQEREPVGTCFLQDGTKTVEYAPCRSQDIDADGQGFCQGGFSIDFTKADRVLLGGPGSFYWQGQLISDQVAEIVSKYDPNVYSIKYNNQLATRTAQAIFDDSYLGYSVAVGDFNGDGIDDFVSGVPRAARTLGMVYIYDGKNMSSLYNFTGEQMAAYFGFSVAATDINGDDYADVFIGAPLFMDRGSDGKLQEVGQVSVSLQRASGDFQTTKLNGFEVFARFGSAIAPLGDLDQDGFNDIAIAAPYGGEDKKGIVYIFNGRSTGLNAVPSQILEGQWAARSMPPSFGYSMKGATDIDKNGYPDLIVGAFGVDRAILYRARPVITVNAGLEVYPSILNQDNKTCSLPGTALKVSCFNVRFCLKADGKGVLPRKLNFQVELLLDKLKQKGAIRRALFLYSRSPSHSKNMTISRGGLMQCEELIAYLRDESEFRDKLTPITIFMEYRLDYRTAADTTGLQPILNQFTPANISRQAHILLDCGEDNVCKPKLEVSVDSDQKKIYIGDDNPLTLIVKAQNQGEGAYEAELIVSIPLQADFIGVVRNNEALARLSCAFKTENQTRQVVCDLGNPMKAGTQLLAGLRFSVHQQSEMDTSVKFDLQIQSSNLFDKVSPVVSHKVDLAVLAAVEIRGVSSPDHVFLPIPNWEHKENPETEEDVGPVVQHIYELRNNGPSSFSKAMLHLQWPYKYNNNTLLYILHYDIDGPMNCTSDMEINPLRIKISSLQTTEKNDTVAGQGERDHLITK
# T1 sequence (P06756 891-1048 partner limits assumed): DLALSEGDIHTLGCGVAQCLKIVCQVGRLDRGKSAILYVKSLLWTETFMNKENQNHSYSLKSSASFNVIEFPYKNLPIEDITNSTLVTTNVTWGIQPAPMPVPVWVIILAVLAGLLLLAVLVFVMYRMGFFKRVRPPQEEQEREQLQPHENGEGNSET
# T1 sequence (P05106 27-788): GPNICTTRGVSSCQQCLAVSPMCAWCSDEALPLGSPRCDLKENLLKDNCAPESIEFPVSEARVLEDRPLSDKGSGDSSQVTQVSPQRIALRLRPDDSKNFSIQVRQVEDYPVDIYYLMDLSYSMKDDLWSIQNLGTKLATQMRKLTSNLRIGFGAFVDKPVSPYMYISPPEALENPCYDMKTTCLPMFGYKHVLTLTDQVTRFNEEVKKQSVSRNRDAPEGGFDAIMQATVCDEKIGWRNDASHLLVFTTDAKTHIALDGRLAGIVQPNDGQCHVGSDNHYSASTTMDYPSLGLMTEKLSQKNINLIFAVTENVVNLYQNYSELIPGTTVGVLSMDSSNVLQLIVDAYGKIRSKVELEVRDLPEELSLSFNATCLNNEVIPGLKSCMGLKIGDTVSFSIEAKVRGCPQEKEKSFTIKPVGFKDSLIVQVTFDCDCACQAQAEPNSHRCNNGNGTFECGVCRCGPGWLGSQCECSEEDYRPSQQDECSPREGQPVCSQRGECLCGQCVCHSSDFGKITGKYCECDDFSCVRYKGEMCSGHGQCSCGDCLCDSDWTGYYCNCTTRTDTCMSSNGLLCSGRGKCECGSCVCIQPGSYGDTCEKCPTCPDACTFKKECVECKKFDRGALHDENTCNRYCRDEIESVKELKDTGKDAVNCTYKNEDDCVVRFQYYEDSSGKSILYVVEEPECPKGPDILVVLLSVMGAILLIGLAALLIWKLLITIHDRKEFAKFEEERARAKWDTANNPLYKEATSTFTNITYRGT
# [2] = tested on: activated human platelets; experiment: Microscopic analysis of platelet aggregates; assay type: cell-based; settings: both temperatures (22° C. and 37° C.)
# Experimental: For the microscopic analysis of platelet aggregates at different temperatures, non-diluted human PRP was placed onto a glass slide and ADP was added to a final concentration of 20 μM, in the presence and absence of EMP-scFv (50 μg/mL). Abciximab was used as a positive control at a concentration of 10 μg/mL. The experiments were conducted at 22° C. and 37° C. Phase contrast microscopy images were taken using an Olympus CKX41 microscope.
# [3] = Circular dichroism (CD) spectra and thermal transition profile; assay type: physicochemical
# Experimental: The mathematical fitting of the CD data allowed the determination of the transition temperature (Tt) resulting from conformational change of EMP as the temperature is increased. The mathematical fitting of the CD data to the van't Hoff equation allowed the determination of the transition temperature (Tt) resulting from conformational change of EMP and EMP-scFv as the temperature is increased.
# Circular dichroism (CD) spectra were recorded on a Jasco J-810 spectropolarimeter equipped with a PFD-425S Peltier temperature control unit in 0.1 cm sealed quartz cells at concentrations of 7.5 μM (EMP), 8.4 μM (scFv) and 4.1 μM (EMP-scFv) in 50 mM sodium phosphate buffer, pH 7.4. Temperature/wavelength CD-scans were performed within the temperature range from 5° C. to 35° C. with equilibration for 10 min at each temperature. Spectra were obtained from 260 to 190 nm at a resolution of 0.5 nm and at a scanning speed of 50 nm/min. The CD curves represented the average of five measurements and were smoothed using the means-movement method on the interval analysis of the spectral manager program. CD data are reported as mean residue ellipticity ([θ], deg cm^2 dmol^−1). Thermal transition curves were plotted by the mean residue ellipticity as a function of temperature for the disappearance of the random coil and the appearance of the β-turn structure.
# [4] = in contrast to conformation unspecific GPIIb/IIIa inhibitors; cited from earlier work
# [5] = target: GPIIb/IIIa (Homo sapiens, UniProt P05106+P08514); experiment: Specificity of scFv (studies in applicant's laboratory); assay type: binding
# [6] = target: T2, GPIIb/IIIa (integrin alphaIIb beta3) on human platelets (human, UniProt P08514 32-1039; P05106 27-788); experiment: flow cytometry, resting and ADP-activated human platelets, 22° C., 32° C. and 37° C.
# T2 construct: whole, on cells; also called GPIIb/IIIa receptor; glycoprotein IIb/IIIa
# [7] = target: T3, GPIIb/IIIa on human platelets (Homo sapiens, UniProt P05106+P08514); experiment: Flow cytometry: binding to human platelets; settings: regardless of the temperature
# T3 construct: endogenous in cells
# Experimental: Human blood was collected by venipuncture with a 21-gauge butterfly needle from healthy volunteers and anticoagulated with citric acid. Platelet-rich plasma (PRP) was obtained by centrifugation (GS-6R centrifuge, Beckman Coulter) at 100×g at room temperature for 10 min.
# Human PRP was diluted 1/50 in modified Tyrode's buffer containing 2 mM MgCl2 and 2 mM CaCl2. Platelets were either activated by addition of 20 μM ADP, or non activated, followed by the incubation with 15 and 50 μg/mL EMP-scFv fusion protein or EMP at 22° C., 32° C. and at 37° C. for 15 min. Mouse platelets were either pre-activated for 10 min by addition of 0.1 U/mL thrombin (Enzyme Research Laboratories), or non activated, before the incubation with 15 and 50 μg/mL of EMP-scFv fusion protein at 22° C., 32° C. or 37° C. for 15 min. In both, human and mouse samples, EMP-scFv was detected via 15 min in-dark incubation with secondary antibody (Penta-His Alexa Fluor 488, Qiagen) directed against the His(6)-tag of the single-chain antibody.
# In re-warming experiments, activated and non-activated diluted human PRP was incubated with 15 and 50 μg/mL of EMP-scFv for 15 minutes at 22° C., followed by a 15-min in dark incubation with secondary Penta-His Alexa Fluor 488 antibody. Half of the reaction was then fixed with 1× Cell FIX, while the other half was incubated at 37° C. for either 15 or 30 minutes, before being fixed and measured in FACS.
molecule,measurement,setting,value
N=C(N)NCCCC[C@@H]1NC(=O)CCSSC[C@@H](C(N)=O)NC(=O)[C@@H]2CCCN2C(=O)[C@H](Cc2c[nH]c3ccccc23)NC(=O)[C@H](CC(=O)O)NC(=O)CNC1=O [eptifibatide] ([Mpa][hArg]GDWPC-NH2; disulfide 1-7),ligand binding to αv/β3 integrins on vascular cells,[1],antagonize ligand binding
abciximab [reference compound],aggregation of activated human platelets (microscopy),[2],abolishes aggregation
same,ligand binding to αv/β3 integrins on vascular cells,[1],antagonize ligand binding
B1,conformational changes in CD,[3]; temperature increased up to 35° C.,No significant conformational changes
same,bleeding time,[4],does not prolong bleeding time
same,specificity of binding,[5],GPIIb/IIIa-specific and binds to activated platelets exclusively
B2,binding result,[6],no binding (tested: 15 and 50 µg/mL)
B3,binding to resting or activated platelets,[7],did not bind
same,transition temperature (Tt),"[3]; CD data at 198 and 220 nm, van't Hoff fit",approximately 26 °C
